Earlier results on 1 substance are cited in publication PMC2686754.

The term Kd denotes a measure of binding affinity in units of concentration.

One series deals with TGF-β1 (Homo sapiens) (UniProt P01137).
The next series concerns the target BMP4 (Homo sapiens) (UniProt P12644).
UniProt P12644, sequence (P12644 293-408): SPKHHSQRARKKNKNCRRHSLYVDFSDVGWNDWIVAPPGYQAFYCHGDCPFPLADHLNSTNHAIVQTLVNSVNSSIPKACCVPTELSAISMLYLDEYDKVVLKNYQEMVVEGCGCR

UniProt P01137, sequence (P01137 279-390): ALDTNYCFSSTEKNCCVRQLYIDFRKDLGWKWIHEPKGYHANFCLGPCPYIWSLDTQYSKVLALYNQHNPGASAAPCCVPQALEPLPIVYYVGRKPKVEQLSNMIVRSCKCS

Regarding CCN2 (from UniProt P29279), the results for the Kd with TGF-β1 (Homo sapiens) and in the series with BMP4 (Homo sapiens) were 30 nM and 5 nM, respectively.
